In patent US20210079398A1:

Experiments:
[1] = target: Spot-Tag peptide-oligonucleotide conjugate (Spot-Tag.O1); experiment: BCS binding assay on a sequencing chip (Cycle 1), NGS count of the nanobody barcode on foundation Spot-Tag.O1_BCS4_Fd19
[2] = target: Spot-Tag peptide-oligonucleotide conjugate (Spot-Tag.O1); experiment: BCS binding assay on a sequencing chip (Cycle 1), NGS count of the nanobody barcode on foundation Spot-Tag.O1_BCS4_Fd20
[3] = target: Spot-Tag peptide-oligonucleotide conjugate (Spot-Tag.O1); experiment: BCS binding assay on a sequencing chip (Cycle 1), NGS count of the nanobody barcode on foundation Spot-Tag.O1_BCS4_Fd27
[4] = target: Spot-Tag peptide-oligonucleotide conjugate (Spot-Tag.O1); experiment: BCS binding assay on a sequencing chip (Cycle 1), NGS count of the nanobody barcode on foundation Spot-Tag.O1_BCS4_Fd28
[5] = target: Spot-Tag peptide-oligonucleotide conjugate (Spot-Tag.O1); experiment: BCS binding assay on a sequencing chip (Cycle 1), NGS count of the nanobody barcode on foundation Spot-Tag.O1_BCS4_Fd29
[6] = target: Spot-Tag peptide-oligonucleotide conjugate (Spot-Tag.O1); experiment: BCS binding assay on a sequencing chip (Cycle 1), NGS count of the nanobody barcode on foundation Spot-Tag.O1_BCS4_Fd31
[7] = target: Bradykinin peptide-oligonucleotide conjugate (Brady.O1); experiment: BCS binding assay on a sequencing chip (Cycle 1), NGS count of the nanobody barcode on foundation Brady.O1_BCS4_Fd12 (non-specific peptide control)
[8] = target: Bradykinin peptide-oligonucleotide conjugate (Brady.O1); experiment: BCS binding assay on a sequencing chip (Cycle 1), NGS count of the nanobody barcode on foundation Brady.O1_BCS4_Fd13 (non-specific peptide control)
[9] = target: Bradykinin peptide-oligonucleotide conjugate (Brady.O1); experiment: BCS binding assay on a sequencing chip (Cycle 1), NGS count of the nanobody barcode on foundation Brady.O1_BCS4_Fd14 (non-specific peptide control)

Spot-tag nanobody-oligo conjugate (VHH)
sequencing counts of binder barcode ligated to target foundation [1]: 6900 counts
sequencing counts of binder barcode ligated to target foundation [2]: 9650 counts
sequencing counts of binder barcode ligated to target foundation [3]: 3380 counts
sequencing counts of binder barcode ligated to target foundation [4]: 4880 counts
sequencing counts of binder barcode ligated to target foundation [5]: 10600 counts
sequencing counts of binder barcode ligated to target foundation [6]: 6160 counts
sequencing counts of binder barcode ligated to target foundation [7]: 40 counts
sequencing counts of binder barcode ligated to target foundation [8]: 1620 counts
sequencing counts of binder barcode ligated to target foundation [9]: 587 counts
